The target of one assay is T1, procaspase-8 (Homo sapiens, UniProt Q14790, A331P).
T1 construct: amino acids 355 and 356 were mutated in full-length caspase-8; made in house; host or cells: cell-free TNT Quick coupled transcription/translation system (Promega)
Kind of assay: in vitro cleavage of 35S methionine-labeled procaspase-8, autoradiography and immunoblotting. The assay is classed as biochemical. As to conditions: 50 mM NaOAc (pH 4.9), 200 mM NaCl, 5 mM DTT, 10% glycerol. The procedure: The fusion polypeptide, Flag-procaspase-8-Myc, was prepared by TNTR Quick coupled transcription/translation systems (Promega, Madison, Wis.). Briefly, 1 μg of pcDNA3Flag-procaspase-8-Myc or pcDNA3Flag (as a control) was added to a 50 μL nuclease-free reaction mixture containing 40 μL of TNT Quick Master Mix and 1 μL of 1 mM […] methionine. The reaction was carried out at 30° C. for 90 minutes and stopped by adding 20 μg/mL of cycloheximide (CI-IX) and 200 μg/mL of RNase and incubating the mixture at 30° C. for 5 minutes. ^35S methionine-labeled Flag-procaspase-8-Myc fusion polypeptide was prepared by adding 40 μCi of ^35S methionine instead of 1 μL of 1 mM methionine. The reaction mixture was separated by SDS-PAGE on a 10-15% gel and visualized by autoradiography. […]
The ^35S methionine-labeled Flag-procaspase-8-Myc fusion polypeptide produced in vitro was incubated with HIV-1 protease purchased from Sachem Biosciences (King of Prussia, Pa.). […] After cleavage of ^35S methionine-labeled Flag-procaspase-8-Myc fusion polypeptide by HIV-1 protease, the products were analyzed by autoradiography (FIG. 1C, top) and immunoblotting using antibodies directed against the Flag (FIG. 1C, middle) and Myc (FIG. 1C, bottom) epitopes. […]
A general note: A western blot detects proteins with antibodies after separation by electrophoresis.

Assay [1] has as its system cytosols from Jurkat T cells. Kind of assay: apoptotic signaling cascade in cell-free system (Jurkat cell extracts), Western blot. The assay is classed as biochemical. As to conditions: added to cytosols from Jurkat T cells. As to the method:
The ability of the procaspase-8 cleavage fragment p41 (hereafter referred to as casp8p41) to initiate an apoptotic signaling cascade in a cell-free system was tested. The cell free system was used previously to reveal the signaling pathway used by HIV protease to initiate apoptosis.
Jurkat cells were purchased from ATCC (Rockville, Md.) and maintained in Dulbecco's Modified Eagle Medium (DMEM) or RPMI1640 (GIBCO) supplemented with 10% (v/v) FBS, 1% penicillin and streptomycin, and 2 mM L-glutamine. The cells were incubated at 37° C. in a humidified atmosphere containing 5% CO2 and 95% air. Jurkat cell extracts were prepared as described previously (Nie et al., Cell Death Differ., 9:1172-84 (2002)). Briefly, cells (0.5×10^6 cells/mL) were harvested by centrifugation at 16000×g for 5 minutes at 4° C. The cell pellet was washed twice with ice-cold PBS (pH 7.4), followed by a single wash with ice-cold caspase buffer (20 mM PIPES, 100 mM NaCl, 10 mM DTT, 1 mM EDTA, 0.1% CHAPS, 250 mM sucrose, pH 7.2). […] Polypeptide concentrations were determined using a BCA protein assay kit (Pierce Chemical Co., Rockford, Ill.), and the resultant suspension was incubated with either HIV protease or casp8p41 polypeptide. […]

The subject of another assay is HeLa cells. Kind of assay: transient expression in HeLa cells, TUNEL, active caspase-3 and Annexin-V staining. As to conditions: cells transfected with pEGFPC1casp8p41. Format: cell-based. The procedure:
The effect of transient expression of casp8p41 polypeptide in HeLa cells was investigated. HeLa cells were purchased from ATCC and maintained in Dulbecco's Modified Eagle Medium (DMEM; GIBCO) supplemented with 10% (v/v) FBS, 1% penicillin and streptomycin, and 2 mM L-glutamine. The cells were incubated at 37° C. in a humidified atmosphere containing 5% CO2 and 95% air. Exponentially growing cells were seeded at 2500-5000 cells/well in a 96-well plate. The cells were transfected with a DNA plasmid expressing GFP (pEGFPC1, BD Biosciences Clontech, Palo Alto, Calif.), or with a plasmid expressing casp8p41 polypeptide as a fusion to the C-terminus of GFP (pEGFPC1casp8p41) using Fugene 6 (2 μL per μg DNA), according to the manufacturer's protocol. […]
HeLa cells transfected with pEGFPC1 or pEGFPC1casp8p41 were analyzed by confocal microscopy following staining with DAPI to visualize cell nuclei and TUNEL staining to detect apoptosis. […]
Cells transfected with pEGFPC1 and pEGFPC1casp8p41 were also subjected to Annexin-V PE, active caspase-3, and TUNEL staining and analyzed for cell death by flow cytometry, gating specifically on GFP-positive cells. […] GFP and annexin-V PE double-positive cells were analyzed by flow cytometry at 30,000 events per sample. […]

The next assay concerns primary human T cells. Description: transfection of primary human T cells, viability by light scatter and apoptosis by TUNEL. The assay is classed as cell-based. To be noted: PBL from HIV-negative donors transfected with pcDNA3 HA casp8p41, compared with GSK3β control vector. As to the method: Primary human T cells were tested for their response to expression of casp8p41 polypeptide by transfecting cells with a vector encoding casp8p41 polypeptide, or with a control vector encoding glycogen synthase kinase 3β (GSK3β; Kim et al., J Biol Chem., 278:13995-14001 (2003)). PBL from HIV-negative donors were isolated and transfected with 2 μg/10×10^6 cells with pcDNA3 HA GSK3β (Ougolkov et al., Cancer Res., 65:2076-2081 (2005)) or pcDNA3 HA casp8p41 using nucleofectin (AMAXA, MD) and program U14. Transfected cells were analyzed for changes in viability by light scatter or for apoptosis by TUNEL staining.

Assay [2] concerns NFκB-mediated transcription. Kind of assay: NFκB activation in an over-expression system. The assay is classed as cell-based.

T1 sequence (Q14790 whole entry A331P): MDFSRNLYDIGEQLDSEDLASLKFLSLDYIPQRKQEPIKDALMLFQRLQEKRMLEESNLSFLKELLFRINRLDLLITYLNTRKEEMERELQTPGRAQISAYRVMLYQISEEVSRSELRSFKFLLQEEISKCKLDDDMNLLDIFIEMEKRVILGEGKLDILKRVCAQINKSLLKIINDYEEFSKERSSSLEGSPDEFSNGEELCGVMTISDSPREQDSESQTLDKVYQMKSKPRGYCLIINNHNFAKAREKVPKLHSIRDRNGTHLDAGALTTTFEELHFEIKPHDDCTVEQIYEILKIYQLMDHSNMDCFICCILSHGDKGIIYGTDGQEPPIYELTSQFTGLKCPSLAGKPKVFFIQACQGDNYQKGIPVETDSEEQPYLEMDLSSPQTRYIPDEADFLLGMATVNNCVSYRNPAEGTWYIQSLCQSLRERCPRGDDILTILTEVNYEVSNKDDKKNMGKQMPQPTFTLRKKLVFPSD

B1: renin: another aspartyl protease (protein, UniProt P00797 67-406, looked up)
Renin: LTLGNTTSSVILTNYMDTQYYGEIGIGTPPQTFKVVFDTGSSNVWVPSSKCSRLYTACVYHKLFDASDSSSYKHNGTELTLRYSTGTVSGFLSQDIITVGGITVTQMFGEVTEMPALPFMLAEFDGVVGMGFIEQAIGRVTPIFDNIISQGVLKEDVFSFYYNRDSENSQSLGGQIVLGGSDPQHYEGNFHYINLIKTGVWQIQMKGVSVGSSTLLCEDGCLALVDTGASYISGSTSSIEKLMEALGAKKRLFDYVVKCNEGPTLPDISFHLGGKEYTLTSADYVFQESYSSKKLCTLAIHAMDIPPPTGPTWALGATFIRKFYTEFDRRNNRIGFALAR
For B1, the “cleavage of Flag-procaspase-8-Myc fusion polypeptide” value with procaspase-8 was “did not cause procaspase 8 cleavage”.

B2: casp8p41 polypeptide: procaspase-8 cleavage fragment p41 generated by HIV protease (SEQ ID NO:2) (protein, listed as Homo sapiens)
chain: MDFSRNLYDIGEQLDSEDLASLKFLSLDYIPQRKQEPIKDALMLFQRLQEKRMLEESNLSFLKELLFRINRLDLLITYLNTRKEEMERELQTPGRAQISAYRVMLYQISEEVSRSELRSFKFLLQEEISKCKLDDDMNLLDIFIEMEKRVILGEGKLDILKRVCAQINKSLLKIINDYEEFSKERSSSLEGSPDEFSNGEELCGVMTISDSPREQDSESQTLDKVYQMKSKPRGYCLIINNHNFAKAREKVPKLHSIRDRNGTHLDAGALTTTFEELHFEIKPHDDCTVEQIYEILKIYQLMDHSNMDCFICCILSHGDKGIIYGTDGQEPPIYELTSQFTGLKCPSLAGKPKVF
B2: in assay [1], the “apoptotic signaling: Bid cleavage, cytochrome c release, caspase-9 and PARP cleavage” value was “resulted in cleavage of Bid to p15 tBid, release of cytochrome c from the mitochondrial fraction into the cytosol, and cleavage of caspase-9 and PARP”. Further, the “TUNEL positivity and active caspase-3 expression, flow cytometry gated on GFP-positive cells” value in the assay with HeLa cells is “induces TUNEL positivity and active caspase-3 expression”. The level of apoptosis entry with primary human T cells is on record as “induced a significantly greater level of apoptosis”. In assay [2], the NFκB activation result was “two-fold more than full-length caspase-8 polypeptide”.

B3: caspase-8 polypeptide: full-length caspase-8 polypeptide, over-expressed (protein, UniProt Q14790 1-479, looked up)
chain: MDFSRNLYDIGEQLDSEDLASLKFLSLDYIPQRKQEPIKDALMLFQRLQEKRMLEESNLSFLKELLFRINRLDLLITYLNTRKEEMERELQTPGRAQISAYRVMLYQISEEVSRSELRSFKFLLQEEISKCKLDDDMNLLDIFIEMEKRVILGEGKLDILKRVCAQINKSLLKIINDYEEFSKERSSSLEGSPDEFSNGEELCGVMTISDSPREQDSESQTLDKVYQMKSKPRGYCLIINNHNFAKAREKVPKLHSIRDRNGTHLDAGALTTTFEELHFEIKPHDDCTVEQIYEILKIYQLMDHSNMDCFICCILSHGDKGIIYGTDGQEAPIYELTSQFTGLKCPSLAGKPKVFFIQACQGDNYQKGIPVETDSEEQPYLEMDLSSPQTRYIPDEADFLLGMATVNNCVSYRNPAEGTWYIQSLCQSLRERCPRGDDILTILTEVNYEVSNKDDKKNMGKQMPQPTFTLRKKLVFPSD
modifications: full-length
notes: full-length caspase-8 polypeptide, over-expressed
Take B3: the NFκB activation result in assay [2] was “increase NFκB activation”.

These data come from patent US20100062462A1, “IMMUNODEFICIENCY VIRUSES” (priority 2005, published 2010).
